The values below come from US20210380703A1 (RIGEL PHARMACEUTICALS, published 2021).

The target in one assay is T1, human ACVR2A (human, UniProt P27037 20-135, limits assumed).
T1 construct: also called activin receptor, type II A
As to the kind of experiment: ELISA. Put shortly:
(§1)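 ELISA measured binding of ACVR2A-specific monoclonal antibodies to human and mouse ACVR2A. Biotinylated goat anti-human kappa light chain served as positive control and human Fc as negative control.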
In general terms: ELISA stands for enzyme-linked immunosorbent assay.

In another assay the target is mouse ACVR2A (mouse, UniProt P27038 20-135, limits assumed). As to the kind of experiment: ELISA. Put shortly: as §1
Sequence of mouse ACVR2A (P27038 20-135 limits assumed): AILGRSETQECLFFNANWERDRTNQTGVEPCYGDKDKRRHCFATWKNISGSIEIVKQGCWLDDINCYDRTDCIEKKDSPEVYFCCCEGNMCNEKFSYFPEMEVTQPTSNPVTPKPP
In assay [1] the target is T2, biotinylated goat anti-human kappa light chain.
T2 construct: positive control of the ELISA
As to the kind of experiment: ELISA, positive control. An outline of the steps: as §1
Also: test concentration or dose not given here.

T1 sequence (P27037 20-135 limits assumed): as the sequence (P27038 20-135 limits assumed) above, with R20K, I73V counted along it

B1: 368_C09 (antibody, V domains shown)
VH: EVQLLESGGGLVQPGGSLRLSCAASGFTFSSYSMHWVRQAPGKGLEWVSNINYNGGYTGYADSVKGRFTISRDNSKNTLYLQMNSLRAEDTAVYYCARAANWHDTHLDYWGQGTLVTVSS
VL: DIQMTQSPSSLSASVGDRVTITCRASQSILTYVNWYQQKPGKAPKLLIYAATSLASGVPSRFSGSGSGTDFTLTISSLQPEDFATYYCQQSYDLPLTFGGGTKVEIK
notes: Group I
As for B1, the optical density in the assay with human ACVR2A turned out to be 2.48 OD; with mouse ACVR2A, 2.61 OD; in assay [1], 3.46 OD.

B2: 368_C12 (antibody, V domains shown)
VH: EVQLLESGGGLVQPGGSLRLSCAASGFTFDSYGMHWVRQAPGKGLEWVASINYNGGYTSYADSVKGRFTISRDNSKNTLYLQMNSLRAEDTAVYYCARAATWHDTHLDYWGQGTLVTVSS
VL: DIQMTQSPSSLSASVGDRVTITCRASQSILTYLNWYQQKPGKAPKLLIYAATSRASGVPSRFSGSGSGTDFTLTISSLQPEDFATYYCQQSDSNPLTFGGGTKVEIK
notes: Group II
In the case of B2, the optical density was 2.49 OD with human ACVR2A, 2.45 OD in the assay with mouse ACVR2A and 3.62 OD in assay [1].

B3: 368_F10 (antibody, V domains shown)
VH: EVQLLESGGGLVQPGGSLRLSCAASGFTFSSYGMNWVRQAPGKGLEWVAGINYNSGYTSYADSVKGRFTISRDNSKNTLYLQMNSLRAEDTAVYYCARAANWHDTHLDYWGQGTLVTVSS
VL: DIQMTQSPSSLSASVGDRVTITCRASQSIVSYVNWYQQKPGKAPKLLIYAATSRASGVPSRFSGSGSGTDFTLTISSLQPEDFATYYCQQSYDTPLTFGGGTKVEIK
notes: Group I
On to B3, for which the results for the optical density (in the assay with human ACVR2A; with mouse ACVR2A; in assay [1]) were 2.25 OD, 2.6 OD and 3.52 OD, respectively.

B4: 368_E08 (antibody, V domains shown)
VH: EVQLLESGGGLVQPGGSLRLSCAASGFTFDSYGMHWVRQAPGKGLEWVANINYNSGYTGYADSVKGRFTISRDNSKNTLYLQMNSLRAEDTAVYYCARAATWHDTHLDYWGQGTLVTVSS
VL: DIQMTQSPSSLSASVGDRVTITCRASQSILSYVNWYQQKPGKAPKLVIYAATSLHSGVPSRFSGSGSGTDFTLTISSLQPEDFATYYCQQSYETPLTFGGGTKVEIK
notes: Group II
For B4, the optical density with human ACVR2A worked out at 2.27 OD; in the assay with mouse ACVR2A, 2.67 OD; in assay [1] it was 3.5 OD.

B5: 369_A12 (antibody, V domains shown)
VH: EVQLLESGGGLVQPGGSLRLSCAASGFTFSSYSMHWVRQAPGKGLEWVASINYNSGYTGYADSVKGRFTISRDNSKNTLYLQMNSLRAEDTAVYYCARAATWHDTHLDYWGQGTLVTVSS
VL: DIQMTQSPSSLSASVGDRVTITCRASQSILTYLNWYQQKPGKAPKLLIYAATSRHSGVPSRFSGSGSGTDFTLTISSLQPEDFATYYCQQSYDLPLTFGGGTKVEIK
notes: Group II
B5: the optical density was 3.17 OD with human ACVR2A, 3.24 OD with mouse ACVR2A and 3.72 OD in assay [1].

B6: 369_A04 (antibody, V domains shown)
VH: EVQLLESGGGLVQPGGSLRLSCAASGFTFDSYGMHWVRQAPGKGLEWVASINYNGGYKSYADSVKGRFTISRDNSKNTLYLQMNSLRAEDTAVYYCARAATWHDTHLDYWGQGTLVTVSS
VL: DIQMTQSPSSLSASVGDRVTITCRASQSIVSYVNWYQQKPGKAPKLVIYAATSLASGVPSRFSGSGSGTDFTLTISSLQPEDFATYYCQQSYDLPLTFGGGTKVEIK
notes: Group II
On to B6, for which the optical density in the assay with human ACVR2A was determined as 2.76 OD; with mouse ACVR2A it was 2.86 OD; in assay [1], 3.5 OD.

B7: 369_B03 (antibody, V domains shown)
VH: EVQLLESGGGLVQPGGSLRLSCAASGFTFSSYGMHWVRQAPGKGLEWVAGINYNGGYTSYADSVKGRFTISRDNSKNTLYLQMNSLRAEDTAVYYCARAANWHDTALDYWGQGTLVTVSS
VL: DIQMTQSPSSLSASVGDRVTITCRASQSILTYVNWYQQKPGKAPKLVIYAATSLASGVPSRFSGSGSGTDFTLTISSLQPEDFATYYCQQSYELPLTFGGGTKVEIK
notes: Group I
B7: the optical density came to 3.32 OD with human ACVR2A, 3.31 OD in the assay with mouse ACVR2A and 3.52 OD in assay [1].

B8: 369_B08 (antibody, V domains shown)
VH: EVQLLESGGGLVQPGGSLRLSCAASGFTFDSYGMHWVRQAPGKGLEWVSSINYNGGYTSYADSVKGRFTISRDNSKNTLYLQMNSLRAEDTAVYYCARAATWHDTHLDYWGQGTLVTVSS
VL: DIQMTQSPSSLSASVGDRVTITCRASQSILSYVNWYQQKPGKAPKLLIYAATSRASGVPSRFSGSGSGTDFTLTISSLQPEDFATYYCQQSYESPLTFGGGTKVEIK
notes: Group II
Consider B8, for which the figures for the optical density (with human ACVR2A; with mouse ACVR2A; in assay [1]) were 2.75 OD, 2.88 OD and 3.29 OD, respectively.

B9: 368_D03 (antibody, V domains shown)
VH: EVQLLESGGGLVQPGGSLRLSCAASGFTFSDYSMHWVRQAPGKGLEWVASINYNGGYTSYADSVKGRFTISRDNSKNTLYLQMNSLRAEDTAVYYCARAATWHDTHLDYWGQGTLVTVSS
VL: DIQMTQSPSSLSASVGDRVTITCRASQSIITYVNWYQQKPGKAPKLLIYATTSRASGVPSRFSGSGSGTDFTLTISSLQPEDFATYYCQQSYDLPLTFGGGTKVEIK
notes: Group II
Consider B9, for which the optical density with human ACVR2A was found to be 2.39 OD; in the assay with mouse ACVR2A, 2.55 OD; in assay [1], 3.49 OD.

B10: 368_E05 (antibody, V domains shown)
VH: EVQLLESGGGLVQPGGSLRLSCAASGFTFDSYSMHWVRQAPGKGLEWVSSINYNGGYKSYADSVKGRFTISRDNSKNTLYLQMNSLRAEDTAVYYCARAATWHDTHLDYWGQGTLVTVSS
VL: DIQMTQSPSSLSASVGDRVTITCRASQSILSYLNWYQQKPGKAPKLVIYAATSRASGVPSRFSGSGSGTDFTLTISSLQPEDFATYYCQQSYSSPLTFGGGTKVEIK
notes: Group II
As to B10, the optical density with human ACVR2A worked out at 1.87 OD; with mouse ACVR2A it was 2.07 OD; in assay [1] it was 3.37 OD.

B11: 368_D09 (antibody, V domains shown)
VH: EVQLLESGGGLVQPGGSLRLSCAASGFTFDSYGMHWVRQAPGKGLEWVAGINYNSGYKSYADSVKGRFTISRDNSKNTLYLQMNSLRAEDTAVYYCARAANWHDTHLDYWGQGTLVTVSS
VL: DIQMTQSPSSLSASVGDRVTITCRASQSIVSYVNWYQQKPGKAPKLLIYAATSLASGVPSRFSGSGSGTDFTLTISSLQPEDFATYYCQQSYDNPLTFGGGTKVEIK
notes: Group I
In the case of B11, the optical density with human ACVR2A was 2.19 OD; in the assay with mouse ACVR2A, 2.11 OD; in assay [1] it was 3.46 OD.

B12: 368_F02 (antibody, V domains shown)
VH: EVQLLESGGGLVQPGGSLRLSCAASGFTFSSYGMNWVRQAPGKGLEWVASINYNSGYTSYADSVKGRFTISRDNSKNTLYLQMNSLRAEDTAVYYCARAANWHDTHLDYWGQGTLVTVSS
VL: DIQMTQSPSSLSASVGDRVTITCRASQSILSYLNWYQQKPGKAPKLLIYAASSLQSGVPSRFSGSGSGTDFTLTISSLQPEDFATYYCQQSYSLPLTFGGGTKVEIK
notes: Group I
For the molecule B12, the optical density with human ACVR2A was determined as 2.18 OD; with mouse ACVR2A, 2.27 OD; in assay [1] it was 3.65 OD.

B13: 368_H03 (antibody, V domains shown)
VH: EVQLLESGGGLVQPGGSLRLSCAASGFTFDDYSMHWVRQAPGKGLEWVASINYNGGYTGYADSVKGRFTISRDNSKNTLYLQMNSLRAEDTAVYYCARAATWHDTHLDYWGQGTLVTVSS
VL: DIQMTQSPSSLSASVGDRVTITCRASQSILSYVNWYQQKPGKAPKLVIYAVTSRHSGVPSRFSGSGSGTDFTLTISSLQPEDFATYYCQQSYSNPLTFGGGTKVEIK
notes: Group II
As to B13, the optical density in the assay with human ACVR2A came out at 2.44 OD; in the assay with mouse ACVR2A, 2.73 OD; in assay [1], 3.56 OD.

B14: 368_G11 (antibody, V domains shown)
VH: EVQLLESGGGLVQPGGSLRLSCAASGFTFDSYGMHWVRQAPGKGLEWVSGINYNSGYKSYADSVKGRFTISRDNSKNTLYLQMNSLRAEDTAVYYCARAATWHDTALDYWGQGTLVTVSS
VL: DIQMTQSPSSLSASVGDRVTITCRASQSILTYLNWYQQKPGKAPKLLIYAATSRASGVPSRFSGSGSGTDFTLTISSLQPEDFATYYCQQSDNTPLTFGGGTKVEIK
notes: Group II
In the case of B14, the results for the optical density (in the assay with human ACVR2A; with mouse ACVR2A; in assay [1]) were 2.1 OD, 2.37 OD and 3.5 OD, respectively.

B15: 369_B07 (antibody, V domains shown)
VH: EVQLLESGGGLVQPGGSLRLSCAASGFTFDSYGMHWVRQAPGKGLEWVANINYNGGYKSYADSVKGRFTISRDNSKNTLYLQMNSLRAEDTAVYYCARAATWHDTHLDYWGQGTLVTVSS
VL: DIQMTQSPSSLSASVGDRVTITCRASQSIVSYVNWYQQKPGKAPKLVIYAATSLASGVPSRFSGSGSGTDFTLTISSLQPEDFATYYCQQSYDLPLTFGGGTKVEIK
notes: Group II
Take B15: the optical density with human ACVR2A amounted to 2.63 OD; with mouse ACVR2A, 2.9 OD; in assay [1], 3.39 OD.

B16: 368_D06 (antibody, V domains shown)
VH: EVQLLESGGGLVQPGGSLRLSCAASGFTFSSYGMNWVRQAPGKGLEWVSNINYNGGYTGYADSVKGRFTISRDNSKNTLYLQMNSLRAEDTAVYYCARAATWHDTHLDYWGQGTLVTVSS
VL: DIQMTQSPSSLSASVGDRVTITCRASQSILSYVNWYQQKPGKAPKLVIYAATSRHSGVPSRFSGSGSGTDFTLTISSLQPEDFATYYCQQSYENPLTFGGGTKVEIK
notes: Group II
Consider B16, for which the values for the optical density (with human ACVR2A; with mouse ACVR2A; in assay [1]) were 2.03 OD, 2.11 OD and 3.41 OD, respectively.

B17: 368_D07 (antibody, V domains shown)
VH: EVQLLESGGGLVQPGGSLRLSCAASGFTFDSYGMHWVRQAPGKGLEWVASINYNGGYTGYADSVKGRFTISRDNSKNTLYLQMNSLRAEDTAVYYCARAATWHDTHLDYWGQGTLVTVSS
VL: not shown
notes: Group II
Turning to B17, the optical density worked out at 2.2 OD with human ACVR2A, 2.46 OD with mouse ACVR2A and 3.26 OD in assay [1].

B18: 369_C06 (antibody, V domains shown)
VH: EVQLLESGGGLVQPGGSLRLSCAASGFTFSSYSMHWVRQAPGKGLEWVSSINYNGGYKSYADSVKGRFTISRDNSKNTLYLQMNSLRAEDTAVYYCARAATWHDTHLDYWGQGTLVTVSS
VL: DIQMTQSPSSLSASVGDRVTITCRASQSILSYVNWYQQKPGKAPKLLIYAATSRASGVPSRFSGSGSGTDFTLTISSLQPEDFATYYCQQSYDSPLTFGGGTKVEIK
notes: Group II
For B18, the optical density came out at 2.75 OD with human ACVR2A, 3.06 OD with mouse ACVR2A and 3.17 OD in assay [1].
